Assay [1] has as its target HLA-B*54:01. Nature of the assay: IEDB peptide-MHC binding, purified MHC/competitive/radioactivity; filed as Kd, often an IC50 or EC50 that approximates it; ≥ and ≤ were set here for values at or beyond the usual limits of such assays.
For assay [2], the target named is HLA-B*35:01. The description is as above.
Assay [3] has as its target HLA-B*07:02. The description is as above.
In assay [4] the target is HLA-B*53:01. Described as above.
Assay [5] concerns the target HLA-B*51:01. The assay is described as above.
The target in assay [6] is HLA-C*05:01. Nature of the assay: IEDB peptide-MHC binding, purified MHC/direct/fluorescence; filed as Kd, often an IC50 or EC50 that approximates it; ≥ and ≤ were set here for values at or beyond the usual limits of such assays. To be noted: source organism: Vaccinia virus Copenhagen.
Assay [7] addresses HLA-A*69:01. Described as above. To be noted: source organism: Camelpox virus M-96.
Assay [8] deals with HLA-A*02:01. Described as above. To be noted: source organism: Camelpox virus M-96.
Assay [9] concerns the target HLA-B*57:01. Nature of the assay: IEDB peptide-MHC binding, purified MHC/competitive/radioactivity; filed as Kd, often an IC50 or EC50 that approximates it; ≥ and ≤ were set here for values at or beyond the usual limits of such assays.
The target of assay [10] is HLA-B*58:01. Described as above.
The target of assay [11] is HLA-C*12:03. Nature of the assay: IEDB peptide-MHC binding, purified MHC/direct/fluorescence; filed as Kd, often an IC50 or EC50 that approximates it; ≥ and ≤ were set here for values at or beyond the usual limits of such assays.
For assay [12], the target named is HLA-A*01:01. Briefly: IEDB peptide-MHC binding, purified MHC/competitive/fluorescence; filed as Kd, often an IC50 or EC50 that approximates it; ≥ and ≤ were set here for values at or beyond the usual limits of such assays.
Assay [13] deals with HLA-A*02:01. Described as above.
In assay [14] the target is HLA-A*68:02. The assay is described as above. To be noted: source organism: Burkholderia mallei GB8 horse 4.
The target of assay [15] is HLA-C*03:03. Briefly: IEDB peptide-MHC binding, purified MHC/direct/fluorescence; filed as Kd, often an IC50 or EC50 that approximates it; ≥ and ≤ were set here for values at or beyond the usual limits of such assays. The following applies: source organism: Escherichia coli F11.
Assay [16] addresses HLA-B*15:01. Nature of the assay: IEDB peptide-MHC binding, purified MHC/competitive/fluorescence; filed as Kd, often an IC50 or EC50 that approximates it; ≥ and ≤ were set here for values at or beyond the usual limits of such assays. The following applies: source organism: Escherichia coli.
Assay [17] addresses HLA-A*03:01. The assay is described as above. The following applies: source organism: Escherichia coli.
[18] abbreviates: source organism: Lymphocytic choriomeningitis virus (strain Armstrong).
[19] abbreviates: source organism: Vaccinia virus WR.
[20] abbreviates: source organism: Dengue virus 1 Brazil/97-11/1997.
Where [21] appears, read: source organism: Dengue virus 3 Martinique/1243/1999.
The mark [22] stands for this setting: source organism: Dengue virus 2 Peru/IQT2913/1996.
[23] abbreviates: source organism: Dengue virus 1 Singapore/S275/1990.
Setting [24] is: source organism: Vaccinia virus Copenhagen.
[25] abbreviates: source organism: Escherichia coli F11.

What is called Kd is the equilibrium constant for the complex coming apart.

For MPSEDGAEAL, the Kd in [1] (setting [18]) was 2850 nM; in [2] (setting [18]), 68.1 nM; in [3] (setting [18]) it was 1360 nM; in assay [4] (setting [18]), 1730 nM; in [5] (setting [18]), not below 21500 nM.

YFDDVTAFL: the figures for the dissociation constant Kd in assay [6], in [7] and in assay [8] were 14 nM, 428 nM and 5 nM, respectively.

With NPTKYIRWKL, the Kd in assay [1] (setting [19]) is 5880 nM; in assay [2] (setting [19]), 15000 nM; in assay [3] (setting [19]), 27 nM; in [4] (setting [19]) it was 2020 nM; in [5] (setting [19]), not below 59400 nM.

In the case of KASQEGPLPE, the Kd came out at 894 nM in assay [9] (setting [20]) and 669 nM in assay [10] (setting [20]).

The sequence FIFPASKVY had a Kd in assay [11] (source organism: Homo sapiens) not above 1 nM.

VPHSVFIASA: the Kd in assay [1] (setting [19]) was 0.286 nM; in assay [2] (setting [19]) it was 8490 nM; in [3] (setting [19]) it was 528 nM; in assay [4] (setting [19]), not below 69900 nM; in assay [5] (setting [19]) it was not below 69600 nM.

On to STASSWSY, for which the Kd in [12] (source organism: Influenza A virus (A/swine/Ohio/24366/2007(H1N1))) is not below 20000 nM.

As to KPYTAGNKV, the Kd in assay [1] (setting [19]) was 29.5 nM; in assay [2] (setting [19]), not below 77400 nM; in [3] (setting [19]) it was 36.6 nM; in assay [4] (setting [19]) it was not below 78200 nM; in assay [5] (setting [19]), 10.3 nM.

Turning to MGITAEWLW, the Kd in [9] (setting [21]) stood at 8.74 nM; in assay [10] (setting [21]) it was 0.436 nM; in [4] (setting [21]), 6.6 nM.

Regarding ESWEEIPYLG, the Kd was found to be 78.3 nM in assay [9] (setting [22]) and 90.3 nM in assay [10] (setting [22]).

ASSVLLWMAS: the Kd in assay [9] (setting [23]) was determined as 15100 nM; in assay [10] (setting [23]) it was 690 nM.

Consider LSDICSGLQ, for which the dissociation constant Kd in assay [12] (source organism: Escherichia coli O139:H28 str. E24377A) was not below 20000 nM.

Take YLYASFCTV: the Kd is 3.2 nM in [13] (setting [24]) and 34 nM in assay [11] (setting [24]).

For WAWPFAAVL, the results for the dissociation constant (Kd) in assay [14] and in assay [11] (source organism: Burkholderia mallei GB8 horse 4) were 53.5 nM and not above 1 nM, respectively.

Turning to RTDAWSYPV, the Kd in assay [12] (setting [25]) amounted to 13.5 nM; in assay [13] (setting [25]) it was 0.8 nM; in assay [15] it was 1460 nM.

Take ITDYIVGYY: the Kd was 3 nM in assay [12] (source organism: Escherichia coli), 2400 nM in [16] and not below 20000 nM in assay [17].

With SPETQQMII, the Kd in assay [1] (setting [19]) was 19500 nM; in assay [2] (setting [19]), 845 nM; in assay [3] (setting [19]) it was 408 nM; in assay [4] (setting [19]), 11.4 nM; in assay [5] (setting [19]), 105 nM.

Values taken from the Immune Epitope Database (IEDB).
